Measurements as given in patent publication US20180325836A1, “ULTRASONIC TRANSDUCERS SUITABLE FOR ULTRASONIC DRUG DELIVERY VIA A SYSTEM, WHICH IS PORTABLE AND WEARABLE BY THE PATIENT” (BKR IP Holdco LLC, priority 2015, published 2018).

What was measured:
[1] = Drug survivability after ultrasonic exposure (HPLC analysis of insulin); format: physicochemical
Description: Since the transducers of this invention are designed primarily for application in a drug delivery system the Applicant deemed it necessary to test the effect of the ultrasonic signal upon an active pharmaceutical substance. High intensity and high frequency ultrasound is theorized to be capable of inducing a cavitation effect within a drug, leading to an increase in temperature and a degradation of the drug molecule. For the following experiment Insulin (Humulin Regular-supplied by the Eli Lilly Company) was subjected to ultrasound emitted from a stacked array of the transducers of this invention, set to operate at 20 k Hz frequency and at 125 mW/sq. cm intensity level, for one, eight and eleven continuous hours of exposure. The insulin was placed in a plastic pouch within a hydrophone tank containing water and stirred during ultrasonic exposure. A control sample, which was untreated, but allowed to sit in the pouch and tank for one, eight and eleven hours, was also made. Samples were sent to Celsis Laboratories for independent analysis.

[2] = test system: rats; assay: Ultrasonically enhanced transdermal insulin delivery in live rats, blood glucose levels; format: in vivo, rat
Description: A four-element transducer was fabricated using four standard cymbal element transducers in one array system (Array #1) and four stacked cymbal element transducers in another system (Array #2). Array #1, the standard array, was set to operate at 20 k Hz frequency and at 125 mW/sq. cm intensity level. Array #2, the stacked array, was set to operate at 20 k Hz frequency and at 225 mW/sq. cm intensity level.
The transducer's arrays were fitted with a reservoir at the bottom end, into which Humulin Regular Insulin (supplied by Eli Lilly Company) was inserted. A total of […] of insulin was added, providing 100 units of insulin for the each test.
Two groups of test rates were assembled. The first group (Group-1) would receive the ultrasonic transmission while the second group would receive no ultrasound. In the second group (Group-2) the transducers arrays were loaded with insulin and the insulin was allowed to pool onto the surface of the rat skin, but there was no active ultrasonic transmission.
Next a frequency generator was employed to propagate the pulsed ultrasonic transmission, which used 100 millisecond pulses, with a pulse rate of one pulse per second, a duty cycle of 10%, for one hour.
Both Group-1 and Group-2 animals were tested for 120 minutes. Blood samples were taken from the animals according to standard investigative procedure every 30 minutes for the first hour and every hour after and analyzed for glucose levels and the presence of insulin. The Group-1 animals were exposed to ultrasound for 60 minutes, after which the ultrasound was terminated for the balance of the test period. Glucose levels in both groups were observed over the 120 minute period.

[3] = test system: rat skin; conditions: rats, after ultrasonic transdermal insulin delivery with transducer array
Description: The belly of the rats were shaved to produce a skin area as close in configuration as would be present in the human situation. The transducer arrays were placed directly onto the rat skin surface and adhered to the skin by means of an adhesive.
A section of the skin where the transducer was placed is marked on the skin.

Insulin [Humulin Regular]
degradation of insulin or excipient solution (HPLC scan) ([1]; control sample, no ultrasound, left in pouch and tank): no degradation | degradation of insulin or excipient solution (HPLC scan) ([1]; ultrasonically treated sample, eight hours of continuous exposure, 20 k Hz, 125 mW/sq. cm): no degradation | change in the insulin versus untreated insulin (independent analysis) ([1]; ultrasound from stacked array, 20 k Hz, 125 mW/sq. cm, one, eight and eleven continuous hours): no change | glucose level ([2]; Group-1 rats, insulin on skin with active ultrasound (20 k Hz), minute 30 and minute 60): significant reduction | glucose level after termination of the ultrasound ([2]; Group-1 rats, minute 60 to 120, ultrasound terminated at minute 60): rise | glucose level ([2]; Group-2 rats, insulin on skin, no ultrasound, minute 30 and minute 60): no lowering | glucose level ([2]; Group-2 rats, no ultrasound, minute 60 to 120): no decrease | permeation through the skin ([2]; insulin placed on the skin or delivered via transdermal patch, without ultrasound): will not permeate | skin damage at test area [3]: no skin damage
